Several values for one entry are separate records, joined by “and”; a condition that tells them apart may be missing. Equal values may be shown once.
B1: rCSTC: human recombinant cystatin C (CST3), cysteine proteinase inhibitor; purchased from R&D Systems (protein, UniProt P01034 27-146, looked up)
Cystatin-C: SSPGKPPRLVGGPMDASVEEEGVRRALDFAVGEYNKASNDMYHSRALQVVRARKQIVAGVNYFLDVELGRTTCTKTQPNLDNCPFHDQPHLKRKAFCSFQIYAVPWQGTMTLSKSTCQDA
B2: rCST9: human recombinant cystatin 9, cysteine proteinase inhibitor; purchased from American Research Products, Inc. (protein, UniProt Q5W186 29-159, looked up)
Cystatin-9: WCSEEEMGGNNKIVQDPMFLATVEFALNTFNVQSKEEHAYRLLRVLSSWREDSMDRKWRGKMVFSMNLQLRQTVCRKFEDDIDNCPFQESLELNNVRQGISFPQVHSCGCCMGCGVGTGAADKAIPRDKGK

Experiments:
[1] = tested on: NDM-1 Kp; assay: LD90 NDM-1 Kp pneumonia murine model, survival; type: in vivo, Balb/c mice; settings: for increased survival of Kp infected mice: single i.p. dose, 50 pg/mouse
Description: To establish the optimal CST route, timing, and dosage regimen against MDR NDM-1 Kp-induced pneumonia, Balb/c mice (n=10-20 mice/gp) were infected with an i.n. LD90 and treated at various times and doses as depicted in Table 1. Doses included i.n. and/or i.p. single rCST9, rCSTC or a combination of rCST9 and rCSTC. Mice that were infected with NDM-1 Kp but were not treated served as controls. rCST treatments by routes, doses, or as a combined therapy were studied to select an optimal regimen.
Evaluate optimal timing and dosage of rCST-9 and/or PEG-rCST9 administration post-infection. Balb/c mice (n=10-20 mice/gp) were intranasally (i.n.) infected with approximately 1.82×10^8 CFU/mouse of Kp 2146 (as established hereinabove) then treated i.n. or i.p. with rCST9, human recombinant cystatin C (rCSTC) or a combination of rCST9 and rCSTC as depicted in Table 1. Kp infected alone served as controls. […] Therefore, as a comparative control to rCST9, the inventors evaluated the effectiveness of rCSTC against pneumonia using the same doses of 50 and/or 500 pg/mouse.
The potential for rCST9/rCSTC treatment to extend the period before successful antibiotic intervention was initiated was determined. For these evaluations, suboptimal doses of colistin were used to determine the extent of protection afforded by rCSTs as well as to minimize side effects/toxicity caused by this antibiotic (n=10 mice/gp). Doses, timing, and route of colistin were chosen based on efficacy studies of colistin in a mouse model of severe, established MDR pneumonia or a very low dose of colistin then adjusted to suboptimal levels for this study. LD90 NDM-1 Kp-challenged mice were treated with the rCST9/rCSTC 3 d i.p. treatment and then given 2 doses of colistin at 20 mg/kg/day or 1.25 mg/kg/day on day 4 and 5 PI.
Mouse model of pneumonia and CST treatments. Eight-week old female Balb/c mice weighing between 21 and 24 grams (Jackson Laboratories) were housed in an Association for Assessment and Accreditation for Laboratory Animal Care (AAALAC)-approved housing facility and permitted to adjust to their environment for 7 d prior to procedures, receiving free access to food and water throughout the study. All procedures were approved by the University of Texas Medical Branch IACUC and performed humanely with minimal suffering. […] One hour PI, mice were administered an i.n. dose of rCST9/rCSTC (50 pg of each) and then, this group of mice was given an i.p. injection of rCST9/rCSTC (500 pg of each) 3 d PI. A parallel group of infected mice received only a single i.p. dose of rCST9/rCSTC, PEG-rCST9/rCSTC (500 pg of each), or PEG-rCST9 (500 pg) alone 3 d PI. NDM-1-Kp infected mice alone or uninfected mice served as controls. Survival was observed up to 15 days post treatment. Additional groups (n=4 mice/group) of infected and CST-treated mice were euthanized at selected time points (24 h, 72 h, 5 and/or 10 d PI) to harvest lungs. Additional groups were treated with i.n. rCSTs (50 pg of each) as described above but they were euthanized at 30 min, 1 h and 3 h to collect lungs for the quantification of lipid peroxidase by-product, known as malondialdehyde (MDA), as described below.
Additional groups of mice (n=15 mice/group) were treated with the optimal CST treatment regimens of an i.n. dose of rCST9/rCSTC (50 pg of each), followed by an i.p. injection of rCST9/rCSTC (500 pg of each) 3 d PI or the single i.p. dose of rCST9/rCSTC (500 pg of each). At 4 d PI, mice were given 2 separate i.p. injections of colistin (JHP Pharmaceuticals, LLC; colistimethate sodium; 20 mg/kg/mouse or 1.25 mg/kg/day) 8 h apart for 2 d.

[2] = tested on: NDM-1 Kp; assay: In vitro bacteria viability and growth assay; type: cell-based, Klebsiella pneumoniae BAA-2146; settings: given individually and in combination
Description: Anti-microbial activity of rCST9/rCSTC against NDM-1 Kp. […] To address this directly, PrestoBlue® was used to determine the viability of rCST9/rCSTC-treated NDM-1 Kp based in the reagents rapid reduction by metabolically active bacteria. […] The most substantial decrease in bacterial growth occurred with 50, 500, and 1000 pg of rCSTs compared to lower doses of 10 and 25 pg of rCSTs (FIGS. 7A-C).
Bacteria preparation. The MDR New Delhi metallo-beta-lactamase-1 (NDM-1) producing Klebsiella pneumoniae BAA-2146™ was purchased from ATCC and expanded for 18 hours in 10 mL of brain heart infusion (BHI) broth while shaking at 37° C. The overnight culture was pelleted by centrifugation and then suspended in PBS. Serial dilutions were performed to obtain the desired concentration. Ten-fold dilutions were plated on BHI agar to confirm experimental dosage.
In vitro bacteria viability and growth assay. As a measure of NDM-1 Kp viability, aliquots were treated with Prestoblue® cell viability reagent (Invivogen) following exposure to CSTs. […] Following incubation, […] of Prestoblue® reagent was added to each sample and incubated for 1 h before quantification of cell viability via absorbance at 570-600 nm measurement (Bio-Tek; Epoch Model). […] Additionally, 100 μL of cultures were plated on BHI plates to quantify colony-forming units (CFU) following an overnight incubation at 37° C. […]

[3] = tested on: monocyte-derived macrophages (MDM) infected with NDM-1-producing Kp; assay: Cytokine secretion from NDM-1 Kp-infected MDM; type: cell-based, human; settings: rCSTC 50 pg, rCST9 25 or 50 pg, individually and in combination; vs Kp-infected MDM
[4] = tested on: IL-8; assay: IL-8 secretion from intestinal epithelial cells exposed to E. coli 083:H1 and/or flagellin; type: cell-based; settings: after exposure to enteric E. coli 083:H1 and/or flagellin
Description: (§1) It is known that intestinal leakage of intestinal bacteria and their product occurs following burn injury likely contributing to systemic infection and sepsis.

[5] = tested on: MIP-1 and IL-8; assay: Systemic cytokines in gavaged mice given 30% full-thickness burn; type: in vivo, Balb/c mice; settings: gavage 50 pg/mouse, then 30% full-thickness burn; specifically in the lungs
Description: as §1

[6] = tested on: gut microbiome; assay: Gut microbiome in gavaged mice given 30% full-thickness burn; type: in vivo, Balb/c mice; settings: gavage 50 pg/mouse, then 30% full-thickness burn
Description: as §1

[7] = 50 pg per mouse, i.n., 1 h pre-infection
[8] = 50 pg per mouse, i.n., 3 d post-infection
[9] = 50 pg per mouse, i.p. then i.p., 1 h and 3 d post-infection
[10] = 500 pg per mouse, i.n., 1 h and 3 d post-infection
[11] = 500 pg per mouse, i.n., 1 h pre-infection

Molecule	increased % survival of Kp LD90 mice [1, 7]	increased % survival of Kp LD90 mice [1, 8] [%]	increased % survival of Kp LD90 mice [1, 9] [%]	increased % survival of Kp LD90 mice [1, 10] [%]	increased % survival of Kp LD90 mice [1, 11] [%]	increased survival of Kp infected mice [1] [%]	replication of NDM-1-producing Kp [2]	cytokine secretion from infected MDM [3]	IL-8 secretion from intestinal epithelial cells [4]	systemic MIP-1 and IL-8 secretion [5]	gut microbiome [6]
B1	increased survival and 20%	10	5	10	10	15	inhibited the replication	restrained cytokine secretion	decreased IL-8 secretion	decrease in systemic MIP-1 and IL-8 secretion	preserved the gut microbiome
B2	increased survival and 10%	10	5	10	10	15	inhibited the replication	restrained cytokine secretion	decreased IL-8 secretion	decrease in systemic MIP-1 and IL-8 secretion	preserved the gut microbiome
